# Experimental data reported in paper doi:10.1101/836676, “Crosslinking of nucleotide binding domains improves the coupling efficiency of an ABC transporter” (bioRxiv, 2019).
# What was measured:
# [1] = target: the molecule itself; assay: cross-linking; disulfide cross-linking of purified cysteine variants in detergent: 1 mM Cu(II)-(1,10-phenanthroline)3, 1 hour, 4 °C, 100 mM NaCl, 20 mM Tris pH 7.5, 0.05% DDM, 0.05% C12E8
# [2] = target: the molecule itself; assay: crystal structure; NaS526C, NaT525C and NaE523Q with bound ATP; condition of NaA527C without MgCl2; samples with 1 mM ATP and 5 mM EDTA
# [3] = target: the molecule itself; assay: crystal structure; wildtype NaAtm1 purified in DDM with MgAMPPNP; 50 mM ADA pH 7.1, 8-10% PEG 1000, 8-10% PEG 1500, 20 °C
protein,measurement,setting,value
"NaA527C, single-site cysteine variant of NaAtm1 (natural protein, Novosphingobium aromaticivorans, C527 in a disulfide with C527 of the second chain after oxidation, NaAtm1 of Novosphingobium aromaticivorans, GenBank ABD27067, with A527C; Made by site-directed mutagenesis of the C-terminally His6-tagged NaAtm1 construct; also called crosslinked NaA527C; source: Escherichia coli BL21-gold (DE3), purified (NiNTA, oxidation with Cu(II)-(1,10-phenanthroline)3, SEC)) MPPETATNPKDARHDGWQTLKRFLPYLWPADNAVLRRRVVGAILMVLLGKATTLALPFAYKKAVDAMTLGGGAQPALTVALAFVLAYALGRFSGVLFDNLRNIVFERVGQDATRHLAENVFARLHKLSLRFHLARRTGEVTKVIERGTKSIDTMLYFLLFNIAPTVIELTAVIVIFWLNFGLGLVTATILAVIAYVWTTRTITEWRTHLREKMNRLDGQALARAVDSLLNYETVKYFGAESREEARYASAARAYADAAVKSENSLGLLNIAQALIVNLLMAGAMAWTVYGWSQGKLTVGDLVFVNTYLTQLFRPLDMLGMVYRTIRQGLIDMAEMFRLIDTHIEVADVPNAPALVVNRPSVTFDNVVFGYDRDREILHGLSFEVAAGSRVAIVGPSGAGKSTIARLLFRFYDPWEGRILIDGQDIAHVTQTSLRAALGIVPQDSVLFNDTIGYNIAYGRDGASRAEVDAAAKGAAIADFIARLPQGYDTEVGERGLKLSGGEKQRVAIARTLVKNPPILLFDEATSCLDTRTEQDILSTMRAVASHRTTISIAHRLSTIADSDTILVLDQGRLAEQGSHLDLLRRDGLYAEMWARQAAESAEVSEAAE",binding result,[1],binds
"NaE523Q, ATP-hydrolysis deficient variant of NaAtm1 with the E to Q mutation in the Walker B-motif (natural protein, Novosphingobium aromaticivorans, NaAtm1 of Novosphingobium aromaticivorans, GenBank ABD27067, with E523Q; Made by site-directed mutagenesis of the C-terminally His6-tagged NaAtm1 construct; source: Escherichia coli BL21-gold (DE3), purified (NiNTA, SEC)) MPPETATNPKDARHDGWQTLKRFLPYLWPADNAVLRRRVVGAILMVLLGKATTLALPFAYKKAVDAMTLGGGAQPALTVALAFVLAYALGRFSGVLFDNLRNIVFERVGQDATRHLAENVFARLHKLSLRFHLARRTGEVTKVIERGTKSIDTMLYFLLFNIAPTVIELTAVIVIFWLNFGLGLVTATILAVIAYVWTTRTITEWRTHLREKMNRLDGQALARAVDSLLNYETVKYFGAESREEARYASAARAYADAAVKSENSLGLLNIAQALIVNLLMAGAMAWTVYGWSQGKLTVGDLVFVNTYLTQLFRPLDMLGMVYRTIRQGLIDMAEMFRLIDTHIEVADVPNAPALVVNRPSVTFDNVVFGYDRDREILHGLSFEVAAGSRVAIVGPSGAGKSTIARLLFRFYDPWEGRILIDGQDIAHVTQTSLRAALGIVPQDSVLFNDTIGYNIAYGRDGASRAEVDAAAKGAAIADFIARLPQGYDTEVGERGLKLSGGEKQRVAIARTLVKNPPILLFDQATSALDTRTEQDILSTMRAVASHRTTISIAHRLSTIADSDTILVLDQGRLAEQGSHLDLLRRDGLYAEMWARQAAESAEVSEAAE",binding result,[2],binds
"NaT525C, single-site cysteine variant of NaAtm1 (natural protein, Novosphingobium aromaticivorans, NaAtm1 of Novosphingobium aromaticivorans, GenBank ABD27067, with T525C; In the cross-linking test C525 forms a disulfide with C525 of the second chain; source: Escherichia coli BL21-gold (DE3), purified (NiNTA, oxidation with Cu(II)-(1,10-phenanthroline)3, SEC)) MPPETATNPKDARHDGWQTLKRFLPYLWPADNAVLRRRVVGAILMVLLGKATTLALPFAYKKAVDAMTLGGGAQPALTVALAFVLAYALGRFSGVLFDNLRNIVFERVGQDATRHLAENVFARLHKLSLRFHLARRTGEVTKVIERGTKSIDTMLYFLLFNIAPTVIELTAVIVIFWLNFGLGLVTATILAVIAYVWTTRTITEWRTHLREKMNRLDGQALARAVDSLLNYETVKYFGAESREEARYASAARAYADAAVKSENSLGLLNIAQALIVNLLMAGAMAWTVYGWSQGKLTVGDLVFVNTYLTQLFRPLDMLGMVYRTIRQGLIDMAEMFRLIDTHIEVADVPNAPALVVNRPSVTFDNVVFGYDRDREILHGLSFEVAAGSRVAIVGPSGAGKSTIARLLFRFYDPWEGRILIDGQDIAHVTQTSLRAALGIVPQDSVLFNDTIGYNIAYGRDGASRAEVDAAAKGAAIADFIARLPQGYDTEVGERGLKLSGGEKQRVAIARTLVKNPPILLFDEACSALDTRTEQDILSTMRAVASHRTTISIAHRLSTIADSDTILVLDQGRLAEQGSHLDLLRRDGLYAEMWARQAAESAEVSEAAE",binding result,[1],binds
"wildtype NaAtm1, bacterial Atm1 homolog from Novosphingobium aromaticivorans (natural protein, NaAtm1, ABC exporter (Atm1 homolog) of Novosphingobium aromaticivorans, GenBank ABD27067; natively cysteine-less; homodimer of 133 kDa; Selenomethionine protein (E. coli B834 (DE3)) was used for phasing; also called native transporter; source: Escherichia coli BL21-gold (DE3), purified (NiNTA, SEC) in DDM) MPPETATNPKDARHDGWQTLKRFLPYLWPADNAVLRRRVVGAILMVLLGKATTLALPFAYKKAVDAMTLGGGAQPALTVALAFVLAYALGRFSGVLFDNLRNIVFERVGQDATRHLAENVFARLHKLSLRFHLARRTGEVTKVIERGTKSIDTMLYFLLFNIAPTVIELTAVIVIFWLNFGLGLVTATILAVIAYVWTTRTITEWRTHLREKMNRLDGQALARAVDSLLNYETVKYFGAESREEARYASAARAYADAAVKSENSLGLLNIAQALIVNLLMAGAMAWTVYGWSQGKLTVGDLVFVNTYLTQLFRPLDMLGMVYRTIRQGLIDMAEMFRLIDTHIEVADVPNAPALVVNRPSVTFDNVVFGYDRDREILHGLSFEVAAGSRVAIVGPSGAGKSTIARLLFRFYDPWEGRILIDGQDIAHVTQTSLRAALGIVPQDSVLFNDTIGYNIAYGRDGASRAEVDAAAKGAAIADFIARLPQGYDTEVGERGLKLSGGEKQRVAIARTLVKNPPILLFDEATSALDTRTEQDILSTMRAVASHRTTISIAHRLSTIADSDTILVLDQGRLAEQGSHLDLLRRDGLYAEMWARQAAESAEVSEAAE",binding result,[3],binds
"NaS526C, single-site cysteine variant of NaAtm1 (natural protein, Novosphingobium aromaticivorans, C526 in a disulfide with C526 of the second chain after oxidation, NaAtm1 of Novosphingobium aromaticivorans, GenBank ABD27067, with S526C; Made by site-directed mutagenesis of the C-terminally His6-tagged NaAtm1 construct; source: Escherichia coli BL21-gold (DE3), purified (NiNTA, oxidation with Cu(II)-(1,10-phenanthroline)3, SEC)) MPPETATNPKDARHDGWQTLKRFLPYLWPADNAVLRRRVVGAILMVLLGKATTLALPFAYKKAVDAMTLGGGAQPALTVALAFVLAYALGRFSGVLFDNLRNIVFERVGQDATRHLAENVFARLHKLSLRFHLARRTGEVTKVIERGTKSIDTMLYFLLFNIAPTVIELTAVIVIFWLNFGLGLVTATILAVIAYVWTTRTITEWRTHLREKMNRLDGQALARAVDSLLNYETVKYFGAESREEARYASAARAYADAAVKSENSLGLLNIAQALIVNLLMAGAMAWTVYGWSQGKLTVGDLVFVNTYLTQLFRPLDMLGMVYRTIRQGLIDMAEMFRLIDTHIEVADVPNAPALVVNRPSVTFDNVVFGYDRDREILHGLSFEVAAGSRVAIVGPSGAGKSTIARLLFRFYDPWEGRILIDGQDIAHVTQTSLRAALGIVPQDSVLFNDTIGYNIAYGRDGASRAEVDAAAKGAAIADFIARLPQGYDTEVGERGLKLSGGEKQRVAIARTLVKNPPILLFDEATCALDTRTEQDILSTMRAVASHRTTISIAHRLSTIADSDTILVLDQGRLAEQGSHLDLLRRDGLYAEMWARQAAESAEVSEAAE",binding result,[1],binds
